Laboratory results taken from patent US20220227815A1, “COMPOSITIONS AND METHODS USEFUL IN TREATING BRAIN DISEASES” (University of Kansas, priority 2019, published 2022).

Experiments:
[1] = system: SJL/elite EAE mice; assay: Suppression of EAE relapse, clinical scores; format: in vivo; details: BDNF 5.71 nmol/kg and/or ADTC5 10 μmol/kg i.v.
Protocol: EAE Mouse Model: EAE disease in animals (5-8-week-old SJL/elite female mice, Charles River) was stimulated by injecting 200 μg of PLP139-151 peptide in a 0.2 mL emulsion containing equal volumes of PBS and complete Freund's adjuvant (CFA) with killed mycobacterium tuberculosis strain H37RA (Difco, Detroit, Mich.; final concentration 4 mg/mL) as described in Kobayashi, N.; Kiptoo, P.; Kobayashi, H.; Ridwan, R.; Brocke, S.; Siahaan, T. J. Prophylactic and therapeutic suppression of experimental autoimmune encephalomyelitis by a novel bifunctional peptide inhibitor. Clin Immunol 2008, 129, (1), 69-79 and Kobayashi, N.; Kobayashi, H.; Gu, L.; Malefyt, T.; Siahaan, T. J. Antigen-specific suppression of experimental autoimmune encephalomyelitis by a novel bifunctional peptide inhibitor. J Pharmacol Exp Ther 2007, 322, (2), 879-86. Briefly, […] of PLP/CFA emulsion was administered to four different regions above the shoulders and the flanks on Day 0 followed by intraperitoneal injection of 200 ng of pertussis toxin (List Biological Laboratories, Campbell, Calif.) on Days 0 and 2. Clinical scores that reflect the disease progression were determined using an 11-point scale with 0.5 increments ranging from 0 to 5; 0 being no apparent disease and 5 being moribund. On Day 21, mice were randomly separated into […]: (i) BDNF (5.7 nmol/kg)+ADTC5 (10 μmol/kg; n=7), (ii) BDNF alone (5.71 nmol/kg, n=6), (iii) ADTC5 alone (10 μmol/kg; n=5), and (iv) vehicle (n=5). All mice received 8 intravenous injections every 4 days beginning on Day 21. The mice were euthanized via CO2 inhalation on Day 55. Area under the curve (AUC) calculations were used to compare clinical scores across groups; AUC calculations were performed using the trapezoid rule from Days 21 to 55.

[2] = system: EGR1, ARC, and MAPK1 mRNA transcripts; assay: Fluorescence in situ hybridization of mRNA transcripts in APP/PS1 hippocampus CA1; format: in vivo, transgenic APP/PS1 mice; details: CA1 region of hippocampus; all three groups compared
Protocol: Coronal brain sections (10 μm thickness) were washed three times in PBS before mounting on gelatin-coated glass slides (Superfrost Plus, Thermo Fisher Scientific). Tissues were allowed to dry at RT and were then stored at −20° C. until use. Fluorescence in situ hybridization (FISH) was performed using Multiplex Reagent Kit V2 from RNAscope® Technology 2.0 (Advanced Cell Diagnostics (ACD), Hayward, Calif.). See Vasquez, J. J., Hussien, R., Aguilar-Rodriguez, B., Junger, H., Dobi, D., Henrich, T. J., Thanh, C., Gibson, E., Hogan, L. E., McCune, J., Hunt, P. W., Stoddart, C. A.,Laszik, Z. G., Elucidating the Burden of HIV in Tissues Using Multiplexed Immunofluorescence and In Situ Hybridization: Methods for the Single-Cell Phenotypic Characterization of Cells Harboring HIV In Situ. J Histochem Cytochem 2018; 66:427-46; Gershon, T. R., Crowther, A. J., Liu, H., Miller, C. R.,Deshmukh, M., Cerebellar granule neuron progenitors are the source of Hk2 in the postnatal cerebellum. Cancer Metab 2013; 1:15; and Smith, P. A., Schmid, C., Zurbruegg, S., Jivkov, M., Doelemeyer, A., Theil, D., Dubost, V., Beckmann, N., Fingolimod inhibits brain atrophy and promotes brain-derived neurotrophic factor in an animal model of multiple sclerosis. J Neuroimmunol 2018; 318:103-13. Mounted tissue sections were deparaffinized using xylene and serially dehydrated in 50%, 70%, 95%, and 100% ethanol for 5 min each. […]

B1: BDNF: recombinant brain-derived neurotrophic factor (13 kDa monomer), Peprotech (protein, UniProt P23560 19-247, looked up)
Neurotrophic factor BDNF …: APMKEANIRGQGGLAYPGVRTHGTLESVNGPKAGSRGLTSLADTFEHVIEELLDEDQKVRPNEENNKDADLYTSRVMLSSQVPLEPPLLFLLEEYKNYLDAANMSMRVRRHSDPARRGELSVCDSISEWVTAADKKTAVDMSGGTVTVLEKVPVSKGQLKQYFYETKCNPMGYTKEGCRGIDKRHWNSQCRTTQSYVRALTMDSKKRIGWRFIRIDTSCVCTLTIKRGR
locomotion / paralysis observed ([1]; 8 injections): partial or full hind leg paralysis and full tail paralysis
EAE clinical body scores ([1]; 8 injections every 4 days from day 21, compared with other groups/vehicle): no significant difference
MAPK1 expression [2]: no significant differences
